The results in this text go back to patent US20140328797A1.

This test concerns the target HRV-A and B strains tested. Description: binding to HRV; format not stated in this example.

B1: TCN-711 (6893_E11) (antibody, human IgG1, lambda, V domains shown)
VH: QVQLHQWGTGVLKPSGTLSLTCGVYGGSLTDFYWTWIRQSPARGLEWLGEIDRDGATYYNPSLKSRITISIDTSKKQFSLNLRSVTAADRAVYYCARRPMLRGVWGNFRSNWFDPWGQGTQVTVSS
VL: QSVLTQPPSVSAAPGQKVSISCSGSSSNIGYSYVSWYQQVPGSAPKLLIYENNKRPSGIPDRFSASKSGTSATLDITGLQTGDEADYYCGTWDTRLFGGVFGGGTKLTVLG
Turning to B1, the EC50 (usually the concentration giving half of the maximal effect) fell in the range of 0.007 to 0.07 nM.
